Results on one molecule are retold here after article PMC7215194 (Heliyon, 2020).

In the experiment the target is dansyl-calmodulin (recombinant rat CaM, dansylated) (rat, UniProt P0DP29 1-149, dansylated with dansyl chloride). Nature of the experiment: other fluorescence titration.

B1: wild-type peptide corresponding to the CaM-binding domain of human Grb7 (residues 243-256), non-myristoylated (peptide)
peptide: RKLWKRFFCFLRRS
In the case of B1, the binding result is recorded as “binds”.
